The values below are quoted from earlier work in publication PMC1775043.

The series deals with hnRNP A2 (Homo sapiens) (UniProt P22626). The series is described as follows: FCS.

A word on the Kd: it is a measure of binding affinity in units of concentration. For hnRNP A2 (from UniProt P22626), the Kd is 0.1 nM.
